The results in this text go back to patent US20130116185A1, “PHOSPHATIDYLINOSITOL 3-KINASES ACTIVITY REGULATOR INCLUDING THE FIFTH ZINC FINGER DOMAIN OF FOG2” (SNU R&DB FOUNDATION, priority 2010, published 2013).

Common to all, as to type: cell-based
Test [1] relates to MDA MB 231 cells. Description: Cell migration, modified Boyden chamber method. The conditions noted are these: 4 μM peptide, 2 days of treatment, 18 hr migration, FIG. 3B. Here is the method:
MDA MB 231 cells were transfected with pCK-flag (control), FOG2-wt (wild type) and FOG2 mutants having modified zinc finger domain (FOG2-ZF-5-m and FOG2-ZF-6-m). The cell migration was then analyzed using the modified Boyden chamber method (Albini A et al., Cancer Res 1987 47:3239-45). Following the transfection for 24 hr, MDA MB 231 cells (1×10^5) were suspended in a serum-free medium and seeded in triplicate in the upper part of BD chamber ([…] pore size). The lower part was filled with the serum-free medium. Following the incubation at 37° C. for 18 hr, non-migrating cells positioned at the upper surface of filters were cleaned with a cotton swab. The migrating cells passing through the lower surface of filters were fixed with 70% ethanol and treated with the Giemsa staining solution for 50 min. Then, the cells were rinsed with water and observed under a microscope. The cell migration rate was determined by counting the number of cells present in randomly-selected six sections and the migration range was expressed as the average number of cells per a microscopic field.
MDA MB 231 cells were incubated with 4 μM Mock (control, DMSO), 4 μM ZF-5-wt-24, 4 μM ZF-5-m-24, 4 μM ZF-5-wt-20 or 4 μM ZF-3-wt-21. After treatment, the cell migration was analyzed using the modified Boyden chamber method (Albini A et al., Cancer Res 1987 47:3239-45). After 2 days of treatment, MDA MB 231 cells (1×10^5) were suspended in the serum free medium and seeded in triplicate in the upper part of BD chamber ([…] pore size). The lower part was filled with the serum free medium. Following the incubation at 37° C. for 18 hr, non-migrating cells positioned at the upper surface of filters were cleaned with the cotton swab. The migrating cells passing through the lower side surface of filters were fixed with 70% ethanol and stained using the Giemsa stain method. The cell migration rate was determined by counting the number of cells present in randomly-selected six sections and the migration range was expressed as the average number of cells per a microscopic field.

In test [2] the target is T1, PI3K (Homo sapiens, UniProt P27986). Description: IGF-1-induced PI3K activation in Hep3B cells incubated with peptides. Also on record: The cell lysates were immunoprecipitated with p85α (sc-1637, Santa Cruz) and Protein G-Sepharose beads; endogenous in cells; host or cells: Hep3B. The conditions noted are these: 4 μM peptides, 48 hr, FIG. 2C. As for the experimental part:
(§1) For measurement of PI3K activity, 10 μl of sonicated PIP2 (1 μg/μl, Calbiochem), 10 μl of 100 mM MgCl2 and 1 μl of [-^32P]ATP (500 μCi/ml) were added to the kinase buffer (10 mM Tris-HCl (pH 7.4), 150 mM NaCl, 1 mM Na3VO4, 10 mM ZnCl2) and incubated at 37° C. for 30 min. After incubation, 20 μl of 6 N HCl was added to stop the reaction and PIP2 was extracted by treatment with 200 μl of methanol:chloroform (1:1) solution. The amount of radioactively labeled PIP2 in the extract was measured using a scintillator counter.
In addition, Hep3B liver cancer cells were incubated with 4 μM peptides for 48 hr and the PI3K activity was analyzed.

The target in test [3] is T1, PI3K. Description: PI3K activity in MDA MB 231 cells incubated with zinc finger domain peptides. Also on record: The cell lysates were immunoprecipitated with p85α (sc-1637, Santa Cruz) and Protein G-Sepharose beads; endogenous in cells. Here is the method: as §1
For peptide treatment, cells were trypsinized to detach them from a culture dish and their aliquot (2×10^5 cells) was incubated with 4 μM peptides in 100 mm dishes. The control was incubated with Mock (DMSO).

Test [4] has as its system MDA MB 231 cells. Description: Cell proliferation MTT assay. Particulars: synthesized peptide, increasing concentration, FIG. 6B. As for the experimental part: Because the PI3K activation is critical in cell growth, the cell proliferation was analyzed to investigate the inhibitory effect of the FOG2 zinc finger domain using the MTT assay.
MDA MB 231 cells were seeded in a 96-well plate, and transfected with 100 ng DNA of pCKflag, FOG2-wt, FOG2-ZF-5-m or FOG2-ZF-6-m using Lipofectamine 2000. On 3 days post-transfection, the MTT assay was performed.
MDA MB 231 cells (2×10^3 cells) were seeded in a 96-well plate and treated with 4 μM each peptide for 3 days. After the treatment, 50 μl of MTT solution (2 mg/ml) was added to each well, incubated at 37° C. for 1 hr. Then, 150 μl of DMSO was added to each well and the absorbance value of each well was measured at 590 nm using a microplate reader.
(Formazan colour is commonly taken as a measure of viable cells.)

The subject of test [5] is MDA MB 231 cells. Description: Apoptosis by FACS analysis (propidium iodide) in MDA MB 231 cells. The conditions noted are these: transfected with 1 μg FOG2 fragment, 2 days, FIG. 7A. Here is the method:
PI3K inactivation has been reported to cause cancer cell apoptosis, and FOG2 is known to inhibit the PI3K activity. To test whether PI3K inactivation by overexpressing FOG2 induces apoptosis, MDA MB 231 cells overexpressed FOG2 were analyzed with FACS.
MDA MB 231 cells were incubated with Full-FOG2[1-1151], FOG2[1-412], FOG2[413-789] or FOG2[802-1151]. The cells (5×10^4) were seeded in a 12-well plate and transfected with 1 μg of Full-FOG2[1-1151], FOG2[1-412], FOG2[413-789] or FOG2[802-1151] using Lipofectamine 2000. The cells were incubated at 37° C. for 2 days and subject to FACS analysis.
The cells were incubated with FOG2 fragments and fixed with 70% ethanol for 16 hr. The fixed cells were stained using RNase (5 mg/ml) and propidium iodide ([…]). The amount of DNA in stained cells was analyzed with Cell Quest program of FACS caliber (Becton Dickinson).
A general note: Flow cytometry measures light scatter and fluorescence of single cells or particles in a stream.

T1 sequence (P27986 whole entry): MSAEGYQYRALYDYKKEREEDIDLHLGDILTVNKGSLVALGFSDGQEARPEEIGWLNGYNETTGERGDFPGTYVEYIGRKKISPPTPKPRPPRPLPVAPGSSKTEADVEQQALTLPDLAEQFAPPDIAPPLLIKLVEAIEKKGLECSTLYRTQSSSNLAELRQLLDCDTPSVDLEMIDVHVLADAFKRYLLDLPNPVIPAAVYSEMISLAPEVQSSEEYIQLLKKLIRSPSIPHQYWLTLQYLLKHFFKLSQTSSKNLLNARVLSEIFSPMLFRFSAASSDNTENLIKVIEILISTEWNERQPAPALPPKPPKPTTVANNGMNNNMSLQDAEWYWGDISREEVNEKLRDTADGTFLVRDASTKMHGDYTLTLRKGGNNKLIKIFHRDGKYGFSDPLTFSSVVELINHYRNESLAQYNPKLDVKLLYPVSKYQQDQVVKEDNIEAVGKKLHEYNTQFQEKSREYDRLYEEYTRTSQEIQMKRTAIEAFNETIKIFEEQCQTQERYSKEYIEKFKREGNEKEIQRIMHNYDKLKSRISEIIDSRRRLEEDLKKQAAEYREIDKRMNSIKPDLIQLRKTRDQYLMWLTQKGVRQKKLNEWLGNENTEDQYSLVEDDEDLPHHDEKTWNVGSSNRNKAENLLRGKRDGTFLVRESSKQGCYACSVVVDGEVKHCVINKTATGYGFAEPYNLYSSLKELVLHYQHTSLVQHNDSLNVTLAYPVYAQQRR

As for “ZF-3-wt-21: The peptide not comprising the fifth zinc finger domain of FOG2 (LKCTVCSYTADSVINFHQHLF) [reference compound]”, the “reduction of cell migration” value in test [1] is reported as “not observed”. The “IGF-1-induced PI3K activation” value in test [2] is reported as “did not inhibit”.

Regarding “ZF-5-m-24: FOG2 mutant peptide with altered fifth zinc finger domain (24 amino acids) (CFECNITFNNLDNYLYLVAKKAYC)”, the “reduction of cell migration” value in test [1] is “not observed”. In addition, the “inhibition of PI3K activity” value in test [3] (MDA MB 231 cells, 4 μM peptide, 48 hr, relative to ZF-5-wt-24, FIG. 5B) is “approximately 30%”. Also, the PI3K activity result in test [3] (synthesized peptides, FIG. 5) is recorded as “does not affect”. Besides, the “IGF-1-induced PI3K activation” value in test [2] was “did not inhibit”. Moreover, in test [4], the “inhibitory effect on cell proliferation” value is given as “does not”.

B1: FOG2[413-789]: The FOG2 protein comprising the amino acid sequence ranging 413-789th amino acid residues of FOG2 full-length amino acid sequence (protein, UniProt Q8WW38 413-789, looked up, fragment)
chain: DLLTRSELPQSQKAMQTKDASSDTELDKCEKKTQLFLTNQRPEIQPTTNKQSFSYTKIKSEPSSPRLASSPVQPNIGPSFPVGPFLSQFSFPQDITMVPQASEILAKMSELVHRRLRHGSSSYPPVIYSPLMPKGATCFECNITFNNLDNYLVHKKHYCSSRWQQMAKSPEFPSVSEKMPEALSPNTGQTSINLLNPAAHSADPENPLLQTSCINSSTVLDLIGPNGKGHDKDFSTQTKKLSTSSNNDDKINGKPVDVKNPSVPLVDGESDPNKTTCEACNITFSRHETYMVHKQYYCATRHDPPLKRSASNKVPAMQRTMRTRKRRKMYEMCLPEQEQRPPLVQQRFLDVANLNNPCTSTQEPTEGLGECYHPRCD
With B1, the “number of apoptotic cells” value in test [5] is given as “increased”.

B2: FOG2[1-412]: Truncated FOG2 mutant in pCK-flag vector, residues 1-412 (protein, UniProt Q8WW38 1-412, looked up, fragment)
chain: MSRRKQSKPRQIKRPLEDAIEDEEEECPSEETDIISKGDFPLEESFSTEFGPENLSCEEVEYFCNKGDDEGIQETAESDGDTQSEKPGQPGVETDDWDGPGELEVFQKDGERKIQSRQQLPVGTTWGPFPGKMDLNNNSLKTKAQVPMVLTAGPKWLLDVTWQGVEDNKNNCIVYSKGGQLWCTTTKAISEGEELIAFVVDFDSRLQAASQMTLTEGMYPARLLDSIQLLPQQAAMASILPTAIVNKDIFPCKSCGIWYRSERNLQAHLMYYCSGRQREAAPVSEENEDSAHQISSLCPFPQCTKSFSNARALEMHLNSHSGVKMEEFLPPGASLKCTVCSYTADSVINFHQHLFSHLTQAAFRCNHCHFGFQTQRELLQHQELHVPSGKLPRESDMEHSPSATEDSLQPAT
modifications: FLAG tag
In the case of B2, in test [5], the “number of apoptotic cells” value was “reduces the apoptosis”.
